What was measured:
pHCA [1] = test: Production of zosteric acid in E. coli from pHCA through heterologous expression of sulfotransferases; assay type: cell-based, Escherichia coli; settings: culture media; M9 glucose, 0.1 mM IPTG, 0.1 mM pHCA, four days of growth
From the text: A range of aryl sulfotransferases including SULT1A1 Rattus norvegicus (SEQ ID NO: 1), SULT1A1 Homo sapiens (SEQ ID NO: 2), SULT1A1 Equus caballus (SEQ ID NO: 3), SULT1A1 Sus scrofa domesticus (SEQ ID NO: 4), SULT1A1 Canis lupus familiaris (SEQ ID NO: 5) and SULT1E1 Gallus gallus domesticus (SEQ ID NO: 6) were expressed in Escherichia coli. […]. The nucleotide sequence of the gene encoding SEQ ID NO: 2 was codon optimized for expression in Escherichia coli (GeneArt, Life Technologies) and amplified by PCR using the primers in Table 1. The pETDuet-1 plasmid was digested with restriction endonucleases Ncol and Sal. The PCR products were then individually cloned into the plasmid pETDuet-1 using the Gibson reaction (New England Biolabs). The resulting plasmids were transformed into BL21(DE3)pLysS (Life Technologies).
The strains were grown in M9 minimal media containing glucose as a carbon source, and 0.1 mM IPTG for induction of gene expression as well as 0.1 mM p-coumaric acid (pHCA). After four days of growth, samples were withdrawn by filtration and analyzed by HPLC.
(§1) The concentration of p-courmaric acid (pHCA) and zosteric acid in the supernatant was quantified by high performance (HPLC) and compared to chemical standards. HPLC was done on a Thermo setup using a HS-F5 column and mobile phases: 5 mM ammonium formate pH 4.0 (A) and acetonitrile (B) at 1.5 mL min-1, using a gradient elution starting at 5% B. From 0.5 min after injection to 7 min, the fraction of B increased linearly from 5% to 60%, and between 9.5 min and 9.6 the fraction of B decreased back to 5%, and remaining there until 12 min. pHCA and zosteric acid were quantified by measuring absorbance at 277 nm.
Zosteric acid was formed with an aryl sulfotransferase heterologously expressed in a microorganism exemplified by E. coli supplied with the substrate.

pHCA [2] = test: Percent conversion of substrate by E. coli cells expressing sulfotransferases; assay type: cell-based, Escherichia coli; settings: 100 μM pHCA, M9 medium, overnight 37° C.
Method: as §1
(§2) Different sulfotransferases were examined for their substrate specificities against three substrates. We tested the sulfotransferases mentioned in example 1, as well as additional ones. The genes encoding these were cloned as described in example 1 using the primers shown in the table below from cDNA libraries of the respective organisms, except for the SULT1A1 from rat (Rattus norvegicus) codon-optimized for E. coli (described above). The resulting vectors were transformed into BL21(DE3)pLysS.
(§3) The resulting strains were grown in M9 medium containing either 100 μM pHCA, 95 μM resveratrol or 87 M kaempferol. The cultures were grown overnight at 37° C., 300 rpm. The following day the supernatants were isolated and examined by HPLC as described in example 1.

resveratrol = test: as above; assay type: cell-based, Escherichia coli; settings: 95 μM resveratrol, M9 medium, overnight 37° C.
Method: as §1, §2, §3

kaempferol = test: as above; assay type: cell-based, Escherichia coli; settings: 87 μM kaempferol, M9 medium, overnight 37° C.
Method: as §1, §2, §3

p-coumaric acid = test: Production of zosteric acid in Saccharomyces cerevisiae expressing SULT1A1; assay type: cell-based; settings: strain CEN.PK102-5B, modified Delft medium, 10 mM p-coumaric acid, overnight 30° C., supernatant
Method: as §1
The gene encoding aryl sulfotransferase SULT1A (Example 1) was cloned after a TEF1 promoter into an episomal plasmid with a 2-micron origin of replication as follows. The gene was amplified by PCR using primers CBJP633 and CBJP634. Alternatively, the gene was codon-optimized for E. coli and synthesized by GeneArt and amplified by primers CBJP635 and CBJP636. The TEF1 promoter (Jensen et al., 2014, FEMS Yeast Res 14: 238-248) was amplified by PCR using the primers PTEF1_fw and PTEF1_rv. Plasmid pCfB132 (Jensen et al., supra) was digested by restriction enzymes AsiSI and Nt.Bsml. […]

B1: SULT1A1 Rattus norvegicus: aryl sulfotransferase SULT1A1 from Rattus norvegicus (SEQ ID NO: 1), expressed in host cells (protein, listed as Rattus norvegicus)
chain: MEFSRPPLVHVKGIPLIKYFAETIGPLQNFTAWPDDLLISTYPKSGTTWMSEILDMIYQGGKLEKCGRAPIYARVPFLEFKCPGVPSGLETLEETPAPRLLKTHLPLSLLPQSLLDQKVKVIYIARNAKDVVVSYYNFYNMAKLHPDPGTWDSFLENFMDGEVSYGSWYQHVKEWWELRHTHPVLYLFYEDIKENPKREIKKILEFLGRSLPEETVDSIVHHTSFKKMKENCMTNYTTIPTEIMDHNVSPFMRKGTTGDWKNTFTVAQNERFDAHYAKTMTDCDFKFRCEL
pHCA [1]
  Zosteric acid formed: 0.10 mM
  pHCA remaining: 0.02 mM
pHCA [2]
  percent conversion of pHCA: 93%
resveratrol
  percent conversion of resveratrol: 93%
kaempferol
  percent conversion of kaempferol: 95%
p-coumaric acid
  μM ZA (averages and standard deviations of replicate experiments): 37.8 ± 5.7 µM

B2: SULT1A1 Rattus norvegicus (Codon-optimized for E. coli): SULT1A1 from rat expressed from a gene codon-optimized for E. coli (protein, UniProt P17988 1-291, looked up)
Sulfotransferase 1A1: B1 chain
pHCA [2]
  percent conversion of pHCA: 73%
resveratrol
  percent conversion of resveratrol: 58%
kaempferol
  percent conversion of kaempferol: 38%
p-coumaric acid
  μM ZA (averages and standard deviations of replicate experiments): 46.2 ± 3.5 µM

— US11390894B2, “Biological processes for the production of aryl sulfates” (CysBio ApS, priority 2014, dated 2022)
